Test in all cases: fluorescence polarisation
On the technique in general: In fluorescence polarisation assays a small probe gives low polarisation when free and higher when bound to something large.

Assay [1] has as its target N-domain fragment of calmodulin, residues 1–80 (rat, UniProt P0DP29 2-81).
Assay [2] addresses C-domain fragment of calmodulin, residues 76–148 (rat, UniProt P0DP29 77-149).
Assay [3] deals with T1, Full-length mammalian calmodulin, residues 1–148 (rat) (rat, UniProt P0DP29 1-149).
The target of assay [4] is T1, Full-length mammalian calmodulin, …. The source holds these as a separate data set.

Data on three molecules can be found in publication PMC3340011 (Biophysical Chemistry, 2011).

Like-named read-outs stand apart in the source and are kept apart here. Where no end group is shown, it is not given here. Where only a bound is given, the exact number is not on record here.

A word on the Kd: it is the free concentration of one partner at which half of the binding sites on the other are occupied at equilibrium, for simple one-to-one binding. Regarding {5,6‑carboxyfluorescein}-ATFLIQEYFRKFKKRKEQGLVGKPSQ [Fl-IQ′_(1650): IQ′_(1650) (residues 1650–1675 of Cav1.2 CTT) fluoresceinated at the N-terminus], the dissociation constant Kd was 1100 ± 970 nM in assay [1], not above 10 nM in assay [2], not above 2 nM in assay [3] and 2500 ± 180 nM in assay [4].

{5,6‑carboxyfluorescein}-ELRAIIKKIWKRTSMKLLDQVV [Fl-C_(1614): C_(1614) (residues 1614–1635 of Cav1.2 CTT) fluoresceinated at the N-terminus]: the Kd in assay [1] was not above 70 nM; in assay [2], not above 70 nM; in assay [3], not above 2 nM; in assay [4] it was 4100 ± 370 nM.

Turning to {5,6‑carboxyfluorescein}-FNATLFALVRTALRIKTEGNLE [Fl-A_(1588): A_(1588) (residues 1588–1609 of Cav1.2 CTT) fluoresceinated at the N-terminus], the Kd in assay [3] was not above 2 nM.
